Test results taken from PMC7773282.
Where two headings read alike, the source gives them in different places.

Columns and labels:
[1] = target: human proton-activated chloride channel (PAC), reconstituted in MSP3D1 lipid nanodiscs (human) (UniProt Q9H813); assay: cryo-EM structure
[2] = target: human proton-activated chloride channel (PAC), reconstituted in MSP3D1 lipid nanodiscs (human) (UniProt Q9H813); assay: cryo-EM structure; remark: listed apart in the source

Question: Which results are given for “human proton-activated chloride channel (PAC), reconstituted in MSP3D1 lipid nanodiscs (from UniProt Q9H813 1-350) (natural protein)”?
Answer: stoichiometry N [1]: 3; stoichiometry N [2]: 3
